B1: vIRF4^153–216 (domain or fragment)
chain: SDTREQSYEEAGAAAPAPPKAPSGLRGRPRKSNRYYNVGDITTEQKAACSVWIPVNEGASTSGM
B2: vIRF4^153–256 (domain or fragment)
chain: SDTREQSYEEAGAAAPAPPKAPSGLRGRPRKSNRYYNVGDITTEQKAACSVWIPVNEGASTSGMGSSGTRQVTQASSFTWRVPGDPPAPSTLTGPSDPHSSGAG
B3: vIRF4^153–256/Δ202–216/Δ237–256 (domain or fragment)
chain: SDTREQSYEEAGAAAPAPPKAPSGLRGRPRKSNRYYNVGDITTEQKAACGSSGTRQVTQASSFTWRVPG
B4: vIRF4^153–256/Δ202–216 (domain or fragment)
chain: SDTREQSYEEAGAAAPAPPKAPSGLRGRPRKSNRYYNVGDITTEQKAACGSSGTRQVTQASSFTWRVPGDPPAPSTLTGPSDPHSSGAG

What follows are binders tested against HAUSP^62–205 (HAUSP TRAF domain) (UniProt Q93009 62-205) (assay: ITC).
HAUSP^62–205 (HAUSP TRAF domain), sequence (Q93009 62-205): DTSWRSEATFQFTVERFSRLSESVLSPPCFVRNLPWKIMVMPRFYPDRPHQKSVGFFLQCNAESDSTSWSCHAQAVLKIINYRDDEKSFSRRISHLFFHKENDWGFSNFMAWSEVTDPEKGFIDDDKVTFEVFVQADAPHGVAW

Binder | Kd [nM] | Ka [M⁻¹]
B1 | 540 | –
EQGPADDPGEGPSTG [EBNA1^435–449 peptide] | 480 | –
DLVQELQEEKPSSSHL (peptide, UniProt Q00987 137-152, looked up) [MDM2^137–152 peptide] | 11100 | 91000
B2 | 76 | –
B3 | 4030 | –
B4 | 3450 | –
